Molecular target: T1, Act1 SEFIR (wild type) (UniProt Q8N7N6 390-531)
T1 sequence: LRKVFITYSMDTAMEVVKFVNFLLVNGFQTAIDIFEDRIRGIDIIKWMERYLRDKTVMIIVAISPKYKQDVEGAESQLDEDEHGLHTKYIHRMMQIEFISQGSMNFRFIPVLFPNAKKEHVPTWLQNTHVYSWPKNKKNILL
Test: competition

B1: Hif1α aptamer (SBE) (structured_RNA)
RNA: UAAUGCUCUUUUUAAUAUGUUCUUUUAAUGCCAGAUCACAGCACAUUCACAGCU
modifications: chemically modified RNA oligo (modification not specified)
B1: binds.

From paper PMC8996325
